± gives the uncertainty stated by the source.

The record followed here is the supplement of paper PMC7877785.

This data set can be described thus: self-splicing fitness, log relative to wild type (ln ratio); higher = more splicing; Tetrahymena group I intron in knt gene, E. coli kanamycin selection, DiMSum; sequences stand for … in CUCUCU…GGAGGGAAAAGUUAUCAGGCAUGCACCUGGUAGCUAGUCUUUAAACCAAUAGAUUGCAUCGGUUUAAAAGGCAAGACCGUCAAAUUGCGGGAAAGGGGUCAACAGCCGUUCAGUACCAAGUCUCAGGGGAAACUUUGAGAUGGCCUUGCAAAGGGUAUGGUAAUAAGCUGACGGACAUGGUCCUAACCACGCAGCCAAGUCCUAAGUCAACAGAUCUUCUGUUGAUAUGGAUGCAGUUCACAGACUAAAUGUCGGUCGGGGAAGAUGUAUUCUUCUCAUAAGAUAUAGUCGGACCUCUCCUUAAUGGGAGCUAGCGGAUGAAGUGAUGCAACACUGGAGCCGCUGGGAACUAAUUUGUAUGCGAAAGUAUAUUGAUUAGUUUUGGAGUACUCGUGGUCG
The procedure, abridged: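 Pooled colonies went to amplicon sequencing on an Illumina HiSeq 2500 after six replicate transformations. The plates were LB agar with 100 μg/mL carbenicillin, 50 μM IPTG and 0.2% rhamnose, with or without 25 μg/mL kanamycin, incubated overnight at 37°C or 30°C. The E. coli BL21(DE3) library had all eight P1ex-region intron nucleotides randomised, the intron placed in the knt kanamycin-resistance gene on pET-22b(+). DiMSum fitness is the error-weighted combination of replicate fold changes, kanamycin against none, normalised to wild type.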

Regarding AAGCAGCAAUAUUACGAGCA, the “self-splicing fitness (ln)” value runs as follows: (30 °C) -0.694 ± 0.073; (37 °C) -0.435 ± 0.086.
In the same order, the values of GAGAAGCAAUAUUACGCUGC are -2.78 ± 0.46 and -2.26 ± 0.49.
Take CUCCAGCAAUAUUACGCUCC: the “self-splicing fitness (ln)” value (30 °C) is -2.73 ± 0.3.
Consider GAAGAGCAAUAUUACGAUGG, for which the “self-splicing fitness (ln)” value reads like this: (30 °C) -3.18 ± 0.17; (37 °C) -2.1 ± 0.23.
As for AUGCAGCAAUAUUACGGUCA, the “self-splicing fitness (ln)” value runs as follows: (30 °C) -1.2 ± 0.14; (37 °C) -1.08 ± 0.14.
Regarding CGUGAGCAAUAUUACGGCAA, the “self-splicing fitness (ln)” value is, setting by setting: (30 °C) -2.81 ± 0.2; (37 °C) -1.43 ± 0.19.
On to GAGUAGCAAUAUUACGCCAU, for which the “self-splicing fitness (ln)” value was -2.49 ± 0.19 (30 °C) and -2.33 ± 0.31 (37 °C).
Consider UCGUAGCAAUAUUACGGAUU, for which the “self-splicing fitness (ln)” value reads like this: (30 °C) -2.08 ± 0.14; (37 °C) -2.85 ± 0.23.
With CAUUAGCAAUAUUACGUUCG, the “self-splicing fitness (ln)” value is 0.151 ± 0.084 (30 °C) and 0.359 ± 0.093 (37 °C).
In the same order, the values of AAAUAGCAAUAUUACGGGCG are -1.29 ± 0.08 and -0.403 ± 0.096.
In the case of CACGAGCAAUAUUACGUGCC, the “self-splicing fitness (ln)” value (37 °C) is -3.4 ± 0.28.
Regarding AGUUAGCAAUAUUACGUAAA, the “self-splicing fitness (ln)” value by setting is: (30 °C) -2.85 ± 0.28; (37 °C) -1.4 ± 0.26.
As to GGAGAGCAAUAUUACGAAGC, where the note is “30 °C”, the “self-splicing fitness (ln)” value was -3.17 ± 0.37.
UCUGAGCAAUAUUACGGUGU: the “self-splicing fitness (ln)” value runs as follows: (30 °C) -2.79 ± 0.19; (37 °C) -1.84 ± 0.28.
The matching figures for CACUAGCAAUAUUACGAUAA: -3.35 ± 0.2 and -1.59 ± 0.15.
The matching figures for GUAUAGCAAUAUUACGUCGG: -3.48 ± 0.26 and -1.31 ± 0.22.
On to CCGGAGCAAUAUUACGUUUG, for which the “self-splicing fitness (ln)” value (30 °C) is -1.54 ± 0.15 and the “self-splicing fitness (ln)” value (37 °C) is -0.756 ± 0.15.
The matching figures for AUCAAGCAAUAUUACGGCCG: -0.0854 ± 0.092 and -0.00151 ± 0.15.
The matching figures for CUCGAGCAAUAUUACGUCCU: -2.54 ± 0.24 and -2.55 ± 0.48.
Turning to UCUAAGCAAUAUUACGUCCC, under “37 °C”, the “self-splicing fitness (ln)” value was -0.386 ± 0.41.
Take AUAGAGCAAUAUUACGGCUG: the “self-splicing fitness (ln)” value is, setting by setting: (30 °C) -1.13 ± 0.13; (37 °C) 0.795 ± 0.2.
As to CUUUAGCAAUAUUACGCAAC, where the note is “30 °C”, the “self-splicing fitness (ln)” value was -1.73 ± 0.24.
For UACCAGCAAUAUUACGUUCU, the “self-splicing fitness (ln)” value runs as follows: (30 °C) -2.28 ± 0.096; (37 °C) -1.86 ± 0.11.
Turning to UGUUAGCAAUAUUACGGCUC, the “self-splicing fitness (ln)” value is, setting by setting: (30 °C) -2.55 ± 0.22; (37 °C) 0.0795 ± 0.15.
Regarding CAGUAGCAAUAUUACGGUAU, the “self-splicing fitness (ln)” value is -3.79 ± 0.27 (30 °C) and -3.02 ± 0.28 (37 °C).
In the same order, the values of AUACAGCAAUAUUACGAGAA are -2.21 ± 0.25 and -1.79 ± 0.16.
The matching figures for UCUAAGCAAUAUUACGAAGC: -1.05 ± 0.39 and -1.8 ± 0.36.
In the same order, the values of UAAUAGCAAUAUUACGCAAC are -2.64 ± 0.4 and -1.73 ± 0.37.
Consider AAAAAGCAAUAUUACGGCAA, for which the “self-splicing fitness (ln)” value is -0.286 ± 0.092 (30 °C) and 0.328 ± 0.12 (37 °C).
In the same order, the values of AUCGAGCAAUAUUACGGUUG are -3.96 ± 0.42 and -3.32 ± 0.37.
In the same order, the values of UUCUAGCAAUAUUACGGCCA are -2.24 ± 0.4 and -1.84 ± 0.42.
As for UCGGAGCAAUAUUACGAACG, the “self-splicing fitness (ln)” value (37 °C) is -1.54 ± 0.35.
For the sequence CGAUAGCAAUAUUACGUACG, the “self-splicing fitness (ln)” value is -1.83 ± 0.097 (30 °C) and -1.05 ± 0.1 (37 °C).
The matching figures for GUCAAGCAAUAUUACGUUGU: -3.69 ± 0.13 and -2.76 ± 0.13.
In the same order, the values of GAUGAGCAAUAUUACGGUAC are -5.2 ± 0.36 and -2.2 ± 0.33.
The matching figures for GGCGAGCAAUAUUACGCUGU: -2.63 ± 0.22 and -2.66 ± 0.27.
AAUCAGCAAUAUUACGGUGG: the “self-splicing fitness (ln)” value was -1.14 ± 0.056 (30 °C) and -0.718 ± 0.076 (37 °C).
In the same order, the values of GACAAGCAAUAUUACGCUUC are -3.75 ± 0.26 and -2.25 ± 0.25.
Turning to AAGCAGCAAUAUUACGGCUG, the “self-splicing fitness (ln)” value is, setting by setting: (30 °C) -2.92 ± 0.12; (37 °C) -2.75 ± 0.16.
The matching figures for GUGUAGCAAUAUUACGCGUG: -3.82 ± 0.26 and -1.49 ± 0.15.
In the same order, the values of AGCCAGCAAUAUUACGUGGG are -3.16 ± 0.13 and -1.3 ± 0.11.
The matching figures for GGUCAGCAAUAUUACGGUAG: -2.15 ± 0.18 and -0.967 ± 0.19.
On to CGUGAGCAAUAUUACGUAUG, for which the “self-splicing fitness (ln)” value by setting is: (30 °C) -1.37 ± 0.11; (37 °C) -0.0658 ± 0.12.
Regarding GGCUAGCAAUAUUACGCUUC, the “self-splicing fitness (ln)” value is, setting by setting: (30 °C) -2.51 ± 0.21; (37 °C) -1.61 ± 0.26.
In the same order, the values of CGGUAGCAAUAUUACGGUGA are -3.76 ± 0.41 and -0.848 ± 0.17.
In the case of UUCUAGCAAUAUUACGAAGC, the “self-splicing fitness (ln)” value (37 °C) is -1.2 ± 0.45.
Consider AUCAAGCAAUAUUACGUCGC, for which the “self-splicing fitness (ln)” value is, setting by setting: (30 °C) -4 ± 0.2; (37 °C) -2.65 ± 0.11.
UCUGAGCAAUAUUACGCAAU: the “self-splicing fitness (ln)” value was -2.13 ± 0.16 (30 °C) and -2.97 ± 0.21 (37 °C).
With CCUCAGCAAUAUUACGGGUG, the “self-splicing fitness (ln)” value (30 °C) was -2.04 ± 0.06 and the “self-splicing fitness (ln)” value (37 °C) was -0.955 ± 0.07.
The matching figures for AUACAGCAAUAUUACGCUGC: -2.38 ± 0.18 and -3.02 ± 0.29.
In the same order, the values of GGAUAGCAAUAUUACGGAGG are -3.06 ± 0.2 and -2.77 ± 0.3.
For AGCUAGCAAUAUUACGUGCA, the “self-splicing fitness (ln)” value is, setting by setting: (30 °C) -0.188 ± 0.069; (37 °C) 0.247 ± 0.096.
In the case of AGGUAGCAAUAUUACGUAUU, the “self-splicing fitness (ln)” value is, setting by setting: (30 °C) -2.78 ± 0.018; (37 °C) -1.45 ± 0.035.
The matching figures for GCCCAGCAAUAUUACGUCGG: -3.13 ± 0.13 and -3.08 ± 0.2.
In the same order, the values of UAUUAGCAAUAUUACGCAAA are -1.67 ± 0.3 and -1.83 ± 0.27.
In the same order, the values of GCCCAGCAAUAUUACGGGGU are -3.84 ± 0.19 and -2.77 ± 0.24.
On to UUGCAGCAAUAUUACGAAAG, for which the “self-splicing fitness (ln)” value (37 °C) is -1.5 ± 0.35.
For the sequence CUUUAGCAAUAUUACGGUGA, the “self-splicing fitness (ln)” value (37 °C) was -2.08 ± 0.3.
Consider CCCCAGCAAUAUUACGCAGG, for which the “self-splicing fitness (ln)” value is, setting by setting: (30 °C) -3.34 ± 0.12; (37 °C) -2.52 ± 0.16.
Consider CCAAAGCAAUAUUACGCUUC, for which the “self-splicing fitness (ln)” value by setting is: (30 °C) -3.37 ± 0.18; (37 °C) -2.48 ± 0.18.
The matching figures for UUGCAGCAAUAUUACGGUAC: -3.25 ± 0.33 and -0.374 ± 0.18.
Regarding UGUUAGCAAUAUUACGAAGG, the “self-splicing fitness (ln)” value runs as follows: (30 °C) -1.88 ± 0.16; (37 °C) -2.16 ± 0.27.
The matching figures for CAGUAGCAAUAUUACGCGUC: -4.24 ± 0.31 and -2.83 ± 0.24.
